From publication PMC6277173
Residue numbers refer to the chain shown, from its start.

B1: mouse antibody Ab2/3H6 (wt3H6) (antibody, V domains shown)
VH: GVQLQQSGPELVKTGASVKISCKASGYSFTDYFMHWVKQSHGKSLDWIGYINCYTGATNYSQKFKGKATFTVDTSSNTAYMQFNSLTSEDSAVYYCARTSIGYGSSPPFPYWGQGTLVTVS
VL: ETTVTQSPASLSMSIGEKVTIRCITSTDIDDDMNWYQQKPGEPPRLLISDGNTLRPGVPSRFSSSGYGTDFVFTIENMLSEDVADYYCLQSDNLPYTFGGGTNLEIK
B2: human anti HIV-1 monoclonal antibody 2F5 IgG (antibody, V domains shown)
VH: RITLKESGPPLVKPTQTLTLTCSFSGFSLSDFGVGVGWIRQPPGKALEWLAIIYSDDDKRYSPSLNTRLTITKDTSKNQVVLVMTRVSPVDTATYFCAHRRGPTTLFGVPIARGPVNAMDVWGQGITVTISS
VL: ALQLTQSPSSLSASVGDRITITCRASQGVTSALAWYRQKPGSPPQLLIYDASSLESGVPSRFSGSGSGTEFTLTISTLRPEDFATYYCQQLHFYPHTFGGGTRVDVR
B3: BM07/vL03 (su3H6 with T94hR, F46lL, Q49lS) (antibody, V domains shown)
VH: EVQLVQSGAEVKKPGATVKISCKVSGYTFTDYFMHWVQQAPGKGLEWMGYINCYTGATNYSQKFKGRVTITADTSTDTAYMELSSLRSEDTAVYYCARTSIGYGSSPPFPYWGQGTLVTVS
VL: ETTLTQSPAFMSATPGDKVNISCITSTDIDDDMNWYQQKPGEAAILIISDGNTLRPGIPPRFSGSGYGTDFTLTINNIESEDAAYYFCLQSDNLPYTFGQGTKLEIK
B4: BM07 (su3H6 with T94hR) (antibody, V domains shown)
VH: B3 VH
VL: B3 VL with L46F, S49Q
B5: BM07/vL02 (su3H6 with T94hR, Q49lS) (antibody, V domains shown)
VH: B3 VH
VL: B3 VL with L46F
B6: BM09 (su3H6 with T94hR, Y27hA) (antibody, V domains shown)
VH: B3 VH with Y27A
VL: B3 VL with L46F, S49Q
B7: BM07/vL01 (su3H6 with T94hR, F46lL) (antibody, V domains shown)
VH: B3 VH
VL: B3 VL with S49Q

How the values were obtained:
[1] = biological target: human anti HIV-1 monoclonal antibody 2F5 IgG (human); assay: BLI; streptavidin bio-assay (Octet QKe): biotinylated 2F5 IgG loaded on streptavidin biosensors, association and dissociation of purified Ab2/3H6 variants; kinetics buffer; KD averaged over different Ab2/3H6 concentrations
BM07 (su3H6 with T94hR) = assay: BLI; protein A bio-assay (Octet QKe): Ab2/3H6 variants captured from concentrated culture supernatants on protein A biosensors, blocked with an unspecific scFv-Fc antibody, association and dissociation of 2F5 IgG measured; kinetics buffer; KD averaged
[2] = biological target: BM07/vL03 (su3H6 with T94hR, F46lL, Q49lS); assay: as above
[3] = biological target: BM07/vL01 (su3H6 with T94hR, F46lL); assay: as above
[4] = biological target: BM09 (su3H6 with T94hR, Y27hA); assay: as above
[5] = biological target: BM07/vL02 (su3H6 with T94hR, Q49lS); assay: as above

Binder | Kd [1] [nM] | further results
B1 | 35 | 
B2 |  | Kd (BM07 (su3H6 with T94hR)): 170 nM; Kd [2]: 21 nM; Kd [3]: 22 nM; Kd [4]: 39000 nM; Kd [5]: 95 nM
B3 | 29 | 
B4 | 330 | 
B5 | 59 | 
B6 | 8300 | 
B7 | 28 | 
